Measurements reported in publication PMC5913134, “The IL-33-PIN1-IRAK-M axis is critical for type 2 immunity in IL-33-induced allergic airway inflammation” (Nature Communications, 2018).

Test system: WT and PIN1 KO mice
Experiment: OVA-induced allergic asthma in mice
Type: in vivo, mouse
Conditions: OVA-challenged PIN1 KO vs WT mice
Procedure: Fig. 1 PIN1 is required for IL-33 to induces TH2 polarization and allergic inflammation. a 5 and15 min after IL-33 treatment of DC2.4 cells, cells were extracted and PIN1 activity was measured as previously described. Inset: PIN1 was immune precipitated and immune blotted for PIN1 or Ser71 phosphorylation as indicated. b WT and PIN1 KO MEF’s were treated with different concentrations of IL-33 for 24 h and the medium was measured for IL-6 secretion. c WT and PIN1 KO mice were treated with 200 ng/mice/day for 4 consecutive days and the BALF was examined for IL-4, 5, 6 and 13 by ELISA. d H&E staining representative of lungs from WT and PIN1 KO mice treated with IL-33 (n = 4). Scale bar = 50 µm. e Total cell number in the BALF of WT and PIN1 KO mice was measured using HEMAVET multispecies hematology analyzer. f Eosinophil cell number in the BALF of WT and PIN1 KO mice was measured using HEMAVET multispecies hematology analyzer. g Representative H&E staining of lung sections from WT and PIN1 KO mice after OVA-induced allergic asthma (n = 4). Scale bar = 50 µm. h IL-4, -5, -13 and IL-33 levels in the BALF of WT and PIN1 KO mice after OVA-induced allergic asthma. The groups were compared using Mann-Whitney U test (i) Total cell number in the BALF of WT and PIN1 KO mice before and after OVA-induced allergic asthma. The data were analyzed by a Student’s two-tailed t test unless stated otherwise, and the values are reported as mean ± standard errors of the means (SEM). *- statistical significance (P < 0.05), **- significance (P < 0.01)

B1: OVA: ovalbumin (OVA), inducer of model of allergic asthma (protein, UniProt P01012 2-386, looked up)
Ovalbumin: GSIGAASMEFCFDVFKELKVHHANENIFYCPIAIMSALAMVYLGAKDSTRTQINKVVRFDKLPGFGDSIEAQCGTSVNVHSSLRDILNQITKPNDVYSFSLASRLYAEERYPILPEYLQCVKELYRGGLEPINFQTAADQARELINSWVESQTNGIIRNVLQPSSVDSQTAMVLVNAIVFKGLWEKAFKDEDTQAMPFRVTEQESKPVQMMYQIGLFRVASMASEKMKILELPFASGTMSMLVLLPDEVSGLEQLESIINFEKLTEWTSSNVMEERKIKVYLPRMKMEEKYNLTSVLMAMGITDVFSSSANLSGISSAESLKISQAVHAAHAEINEAGREVVGSAEAGVDAASVSEEFRADHPFLFCIKHIATNAVLFFGRCVSP
BALF total cells count: reduced BALF total cells count
TH2 cytokine levels in BALF: reduced TH2 cytokine levels
lung inflammation: reduced lung inflammation
